The data set relates to Bacillus subtilis DB104 (SP-AmyQ fusion secretion). Nature of the data set: AmyQ secretion efficiency, weighted average sort bin (1 = best secretion, 10 = worst) (bin number (weighted average, 1-10)); higher = lower secretion efficiency. In a few lines: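 With fluorescein-starch as substrate, a B. subtilis DB104 library expressing mature AmyQ fused to designed signal peptides (integrated at amyE) was encapsulated at about 0.3 cells per ~65 nL alginate bead. After about 13 h at room temperature, beads were nile red stained, and occupied beads were sorted by large-particle flow cytometry into 10 equally populated bins by green/red fluorescence ratio. Illumina sequencing of the amplicons in each bin was used to calculate the secretion score, which is the read-frequency-weighted average bin number, normalised to beads per bin, with low-abundance sequences left out.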

In the case of MKKQTTIINNSTIITATTAVVLGSTLFAGAASAQSI, the AmyQ secretion efficiency amounted to 3.18. Sequence MKKWMAGLFLAAAVLLCLMVPQQKQGASS came in with an AmyQ secretion efficiency of 3.94. The same measure for MRPVFPLKRSAVLFLSCFFGARQTEASASKR: 8.12; for MKQIMIFLTSFMLLAMTGTTALAKDV: 3.67; for MKRTWNVCLTALLSVLLVAGSVPFHAEAAKK: 2.52. On to MFKFKKNTRGGLSAALMSISLFSATASAAST, for which the AmyQ secretion efficiency amounted to 3.49. Under MTKLKMLSMLTVMIASLFIFSSQMLAVQY stands 4.6; under MRIFKKAVFVIMISFLIATVNVNTAHAAIG, 1.03; under MGLGKKGTYRVAASFMSLSISLPGVQAAEG, 4.07. With MKKRITYSLLALLAVVAFAFLTDSSKAKAAEA, the AmyQ secretion efficiency worked out at 3.06. Regarding MKKMLGKSRYGAGILVFFAVVVKDVFAAGL, the AmyQ secretion efficiency was found to be 4.68. In turn, MLMLCLWFTVFSLFLVLLPGKALGAVD came in with an AmyQ secretion efficiency of 5.08. The same measure for MITTIVITCVMAASLTLGSLLPAGYASAKED: 4.06. In turn, MKKLVLCVSILAVILSGVALTDED registered an AmyQ secretion efficiency of 6.4.

For the sequence MIKRFSLIMMTGLLFGLTSPAFAAEK, the AmyQ secretion efficiency was found to be 4.15. MKNMSCKLVVSVTLFFSFLTIGPLVHAQNS yielded an AmyQ secretion efficiency of 1.05. Under MRPVFPLILSAVLFLSCFFGARQTEASMSKR stands 2.44; under MNLRKILLSSALSLGMLVSAAPALATSS, 2.26. Consider MKKRLIAPMLLSAASLAFFAMSGSAQGAAY, for which the AmyQ secretion efficiency was 4.34. In turn, MRRKKRKAVLLSLIMLIAGFLISFSFQM showed an AmyQ secretion efficiency of 7.79.

As for MLTKRLLTIYIMLLGLITWFPGAAQAEEK, the AmyQ secretion efficiency came out at 2.44. The sequence MKSKWMSGLLLVAVGFSFTQVMVHAGDE returned an AmyQ secretion efficiency of 5.94. The same measure for MRPVFPLILSAVLFLSCFFGARQTEASPSKR: 2.1. MRHKIITFILAVVVIIIIGNMIGGGGGSEATSH: the AmyQ secretion efficiency came to 5.06. The same measure for MKRLLSTLLIGIMLLKRKRRRAFAKQD: 8.09; for MKGWMRTTLVVLFTIVTFGLVSPPAALMADKP: 7.14; for MFKKHSTISLLIIFLLASAVLAKPIEAHTV: 1.86. Sequence MLGSTSFVSSLFISSAVLLSILLPSGQAHAQSA displayed an AmyQ secretion efficiency of 2.1. The same measure for MPYLKRVLLLLVTGLFMSLFAVTATASKQTG: 1.26. The same measure for MRKTIFAFLTGLMMFEDDEEDASASPD: 5.45; for MRKYTVIASILLSFLSVLASTVFVSKAFPV: 8.75; for MKRIRIPMTLALGAALTIAPLSFASAEED: 3.29. MKKVLMAFIICLSLILSVLAAPPSGAKAARR showed an AmyQ secretion efficiency of 2.06. In turn, MPYLKRVLLLLVTGLFMSLFAVTATQSAQTG returned an AmyQ secretion efficiency of 3.84. The same measure for MKKWLIIAVSLAIAIVLFMAFKGEAKAAGM: 3.57; for MLKKIALTLCPAIVGSLLFFTAPQSAHVS: 5.63; for MRRYRKVLTMCFLGLILFVPTALADNS: 1.79. MSGTTSIILFSTLALAAGMTAAAAGGAGTIHAQQP: the AmyQ secretion efficiency came out at 3.5. The same measure for MRKKLKWLSFRRRRIILLFLFKYQFSNNDS: 7.16; for MKWMCSICCAAVLLAGGANQAEAV: 2.83. For MGLGKKLSVAVAASFMSLSISLPGVQSAEG, the AmyQ secretion efficiency was found to be 3.87.

MRPVFPLRRRRRRFLSCFFGARQTEASASKR registered an AmyQ secretion efficiency of 7.47. Under MRSKKLWISLLFALTLIFTMAFSNMSAQRAGK stands 6.17; under MFGKLLLATSALTFSLSLVLPLDGHAKAQEV, 3.02; under MKSKGSIMACKRLFSFTITTFINTETISAFSN, 6.73. Under MLTKRLLTIYIMLLGLIRRKPGAAQAEEK stands 7.69. The same measure for MKWMCSICCAAVLLAGGASFFGTFGPGTTAQAEAV: 4.06; for MKKVSALTPSTTLAITAKAKEL: 6.89; for MFNRLFRVCFLAALIMAFTLPNSAYAQKP: 2.14.

For MKLWMRKTLVVLFTIVTFGLVSPPAALMFDKP, the AmyQ secretion efficiency came to 3.85. The same measure for MSTGTSGSLISSLIVLSTVVISSLLFPGAAGASSK: 2.34. The sequence MKLAKRVSALTPSTTLAITAKPKEL came in with an AmyQ secretion efficiency of 6.44. Under MKKVLMAFIICLSLILSVLAAPPSGAKAASK stands 1.85. Under MKKQIITATTAVVLGSTLFAGALSAQSI stands 2.54; under MTMLRKIIGWILLLCIIDDDEEDVIASGKEV, 5.3; under MRKVFPLILSAVLFLSCFFGARQTEASASKR, 2.13. The same measure for MKKKLAAGLTASAIVGTTLVVTPVEAATI: 2.24; for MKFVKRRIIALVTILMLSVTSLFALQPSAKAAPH: 2.38; for MKVCQKSIKRFLVSLIIGTFVISVPFMANAQSD: 1.93. Sequence MKQFAITLSVLCALILLVPTLLVIPFQHNKEAPASV showed an AmyQ secretion efficiency of 8.36. In turn, MRKTIFAFLTGLMMFGTITAISASPD yielded an AmyQ secretion efficiency of 5.52. The same measure for MSMMLRRNFKRFIAAFLVLALMISLVPADVLAKST: 1.81.

MRSYIKVLTMCFLGLILFVPTLLADNS returned an AmyQ secretion efficiency of 4.36. Under MPYLKRKGYQYQSGLFMSLFAVTATASAQTG stands 4.4; under MRKKTKNRLISSVLSTVVISSLLFKRKAGASSK, 7.11. The same measure for MKKELLASLVLCLSLKRRKRTNRVFAATT: 7.57.

In turn, MKKRFSLIMMTGLLFGLTKKRAFAAEK came in with an AmyQ secretion efficiency of 6.54. Under MHLIRQSQGYCQYTVLIAGCRFNEDQHQAEGENT stands 6.47; under MGLGKKLSVAVAASFMSLSISLPGVQAAED, 2.84. As for MNLFLIAPMLLSAASLAFFAMSGSAQAAAY, the AmyQ secretion efficiency is 5.75. Under MLTKRLLTIYIMLLGLIAWFPGAAQAKRK stands 6.07; under MKRLCKKRKVFSLFLVLLPGKALGAVD, 7.25.

The sequence MKKRLIGFLVLVPALIMIEANKK registered an AmyQ secretion efficiency of 6.53.

Sequence MKSKGSIMACLILFSFTITTFINTETISAFRR registered an AmyQ secretion efficiency of 6.09.

As for MRKTIFAFLTGLMMFGTITAPSASPD, the AmyQ secretion efficiency turned out to be 5.98. Take MLCVMMLLFSAIASFPVSAQYKDQ: the AmyQ secretion efficiency came out at 6.57. Under MKKRLIGFLVLVPALIMSGITLIECNKK stands 6.67; under MLKKKWMVGLLAGCLAAGGFSYNAFSTEN, 6.06. In turn, MFNRLFRVCFLAALIMAFFLGNSVYAQKP gave an AmyQ secretion efficiency of 2.37. Take MNKLKRLSMLTVMIASVFIFSSHALAARR: the AmyQ secretion efficiency amounted to 2.05. The same measure for MKWMCSICCAAVLLAGGAPTFAQAEAV: 3.68; for MKKRLIAPMLLSAASLAFFAMSGSTQAAAY: 3.66. Under MKLWMRKTLVVLFTIVTFGLVSPPAAEMADKP stands 2.41. The same measure for MAIIIAIIAAVIVIAALITFNVRNLSPG: 7.04; for MKKKLAAGLTASAIVGTTLVDEPAEAATI: 5.66; for MNMLKRLSMLTVMIASVFIFSSHALAAQY: 1.63.

In turn, MTKLKMLSMLTVMIASLFIFSSQALVVQY showed an AmyQ secretion efficiency of 5.36. The same measure for MKVPKTMLLSTAAGLLLSLTATSKSAHYV: 6.37; for MRKKRVITCVMAASLTLGSLLPAGYASGKED: 3.86; for MKKTMTIGLLFMLCLAALFTIGFPAQQADAAEA: 2.9. MLKKIALTLCPAIVGSLLFFTAPASMHVS yielded an AmyQ secretion efficiency of 4.09. The same measure for MKQFAITLSVLCALILLVPTLLVIPRRKKRHKKEAGASV: 5.51. The same measure for MFNRLFRVCFLAALIMAFTLPNSVYRQKP: 7.13; for MILRKVLTGSVLSLGLLVSASPAFATSP: 1.73. The same measure for MAIIIAIIAAVIVIAALITFNVLNASPG: 6.68; for MKRKSMSFSLSNLLSSLAISALSLGLLVSAPTASFAAES: 2.5; for MKKWMITIAMLILAGIALFVFISPLKGHKT: 6.29. Consider MHLIRAAGAVCLAVVLIAGCRFNEDQHQVEGENT, for which the AmyQ secretion efficiency was 4.66.

As to MRKKCSSMSFTSVCLWILVLLLSCLSGKSAYAATS, the AmyQ secretion efficiency was found to be 3. As to MTKKAWFLPLVCVLLISGWLAPAASGSAQTT, the AmyQ secretion efficiency amounted to 2.23. The same measure for MKWMCSICCAAVLLAGGAAQYEAV: 7.08.

MKLSVKRGTTLTVAAAAMTAKMYATAKGN came in with an AmyQ secretion efficiency of 7.06. Under MTKLKMLSMLTVMIASLFIFSKRRALAVQY stands 6.11. The same measure for MMKKLFHSTLIVLLFFSFFGVKRKIHAKKQ: 3.3; for MKQGKFVFLILLLMLTLVVAPKEKAEAASS: 1.74.

MKRFILVLSFLSIIVAYPIQSNASPM displayed an AmyQ secretion efficiency of 5.96.

MRNLTKTSLLLAGLCTAAKKKFVTHASAEES yielded an AmyQ secretion efficiency of 8.31. The same measure for MKVPKTMLLSTAAGLLLSLTATSISAHYV: 6.77.

The values above are taken from the supplement of paper PMC9942255.
